Experimental data: IntAct's records for PubMed 19797078

B1: Tyrosine-protein phosphatase YVH1 (Saccharomyces cerevisiae), Q02256 (parent)
chain: MAGNANSVDEEVTRILGGIYLGGIRPIIDHRPLGAEFNITHILSVIKFQVIPEYLIRKGYTLKNIPIDDDDVTDVLQYFDETNRFIDQCLFPNEVEYSPRLVDFKKKPQRGAVFAHCQAGLSRSVTFIVAYLMYRYGLSLSMAMHAVKRKKPSVEPNENFMEQLHLFEKMGGDFVDFDNPAYKQWKLKQSIKLDPSGSELVSNSGMFKDSESSQDLDKLTEAEKSKVTAVRCKKCRTKLALSTSFIAHDPPSKESSEGHFIKRAANSHRIIDIQESQANCSHFFIEPLKWMQPELQGKQELEGKFSCPGCSSKVGGYNWKGSRCSCGKWVIPAIHLQTSKVDQFPLQSTALPNMVNFESEKVNR
partner: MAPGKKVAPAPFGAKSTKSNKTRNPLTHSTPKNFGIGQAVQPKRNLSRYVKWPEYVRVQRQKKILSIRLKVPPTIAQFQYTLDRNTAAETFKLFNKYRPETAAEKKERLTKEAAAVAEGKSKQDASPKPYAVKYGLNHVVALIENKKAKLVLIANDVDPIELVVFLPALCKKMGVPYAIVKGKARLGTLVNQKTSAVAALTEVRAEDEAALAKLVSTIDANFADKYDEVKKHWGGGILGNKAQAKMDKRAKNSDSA
B2: Ribosome assembly factor MRT4 (Saccharomyces cerevisiae), P33201 (parent)
chain: MPRSKRSKLVTLAQTDKKGRENKERIFDEVREALDTYRYVWVLHLDDVRTPVLQEIRTSWAGSKLIMGKRKVLQKALGEKREEEYKENLYQLSKLCSGVTGLLFTDEDVNTVKEYFKSYVRSDYSRPNTKAPLTFTIPEGIVYSRGGQIPAEEDVPMIHSLEPTMRNKFEIPTKIKAGKITIDSPYLVCTEGEKLDVRQALILKQFGIAASEFKVKVSAYYDNDSSTVESTNINME
partner: B1 partner

Variants of: B1
Conditions: with rl8a_yeast RPL8A

Row | effect of a mutation on the interaction | Variant
1 | decreasing interaction | C117S

Variants of: B2
Conditions: with rl8a_yeast RPL8A

Row | effect of a mutation on the interaction | Variant
2 | decreasing interaction | G68D
